Laboratory results: the nanobody polyreactivity screen of Harvey et al. (2022)

Test: yeast display, Sf9 membrane polyspecificity reagent, FACS + sequencing; frameworks hold sequencing errors
Summary of the method: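 Nanobodies came from a synthetic yeast display library in Saccharomyces cerevisiae BJ5465, induced with galactose for 36–48 hours and stained for 1 hour at 4 °C with 10% biotinylated, detergent-solubilized Sf9 membrane reagent. Cells were enriched on streptavidin microbeads and then FACS-sorted, with low and high (top ~1%) gates set on anti-HA fluorescence for expression and streptavidin fluorescence for reagent binding. Each polyreactivity label reflects the gate a clone came from. Genes were amplified by colony PCR, sequenced by MiSeq 2 × 250 and filtered by CDR length.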
For “QFQLVESGGGLVQAGGSLRLSCAASGSTFIGYAMGWYRQAPGKERELVAAITGGGRTNYADSVKGRFTISRDNAKNTVYLQMNSLKPEDTAVYYCAARGVSRGYAKPYYSRGDYWGQGTQVTVSS”, the “polyreactivity (PSR sort gate)” value was “low polyreactivity”.
In the case of “QVQLVESGGGLVQAGGSLRLSCAASGRIFGSYAMGWYRQAPGKERELVAAITRGGSTNYADSVKGRFTISRDNAKNTVYFQMNSLKPEDTAVYYCARWVGLHYPYYYWGQGTQVTVSS”, the “polyreactivity (PSR sort gate)” value is reported as “high polyreactivity”.
For “QVQHVESGGGLVQAGGSLRLSCAASGSILFKYAMGWSRQAPGQESELVATITSGGSTYYADSVKGRVTISRDNAKNTVYLQMNSLKPEDTAVYYCATGQYYYDGIVAFFELDYWGQGTQVTVSS”, the “polyreactivity (PSR sort gate)” value was “low polyreactivity”.
With “QVQLVESGGGLVQAGGSLRLTCAASGSTFSANAMGWYRPGPGKERELVAGISRSGGRTYYADSVKGRFTISRDNAKNTVYLQMNSLKPEDTAVYFCNDRRRGAGGYDYWGQGTQVTVSS” the “polyreactivity (PSR sort gate)” value was “high polyreactivity”.
In the case of “QVQLVESGGGLVQAGGSLRLSCAASGSTFYGNPLGWYRKAPGKERELVAAIRRSGGRTYYADSVKGRFTISRDNAKNTVYLQMNSLKPEDTAVYYCAAAKYSGAYRSTMNYWGQGTQVTVSS”, the “polyreactivity (PSR sort gate)” value is reported as “high polyreactivity”.
For “QVQLLDSGGGLVQAGGSLRLSCAASGSIFYLNAMGWYRQAPVKEREFVAAITLRGGSSYYADSVKGRFTISRDYANNTFYLQMKSLKPEDTAFYYCNAGVALTYVHDGDYWGQGTQVTVSS”, the “polyreactivity (PSR sort gate)” value was “low polyreactivity”.
With “QVQLVESGGGLVQAGGSLRLSCAASGSTFEPYAMGWYRQAPGKERELVATITLRGGTTNYADSVKGRFTISRDNAKNTVYLQMNSLKPEDTAVYYCNARKLTGYIRYRTGKMNYWGQGTQVTVSS” the “polyreactivity (PSR sort gate)” value was “high polyreactivity”.
With “QVQLVESGGGLVQAGGSLRLSCAASGSIFPPYAMGWYRHAPGKERELVATITIRGGSTYYADSVKGRFTISRDNAKNTVYLQMNSLKPEDTAVYYCAADYSKYYRRYYYWGQGTQVTVSS” the “polyreactivity (PSR sort gate)” value was “high polyreactivity”.
In the case of “QVQLVESGGGLVQAGGSLRLSCAASGRTFWYYTMGWYREAPGKERELVAAINWSGGSTYYADSVKGRFTISRDNAKNTVYLQMNSLKPEDTAVYYCAARRNGYFSAARDYGGQGTQVTVSS”, the “polyreactivity (PSR sort gate)” value is reported as “high polyreactivity”.
In the case of “QVHIVESGGGLVQAAGSLRLSCAASGSTLAIYDMGWYRQAPGKERELVAAISGGGSTYADSVKGRFTISPDNAKNTVYLHMNSLKTEDTAVYYFNADGWGDLFWSNFRFDYWVQGTQVTVSS”, the “polyreactivity (PSR sort gate)” value is reported as “low polyreactivity”.
In the case of “QVQLVDSGGGLVQAGGSLRLSCAASGRTLSFYGMGWYRQAPGKERELVAAISSSGSRTYYADSVKGRFTISRDNAKNTVYLQMNSLKPEDTAVYYCNALRIYHHYEYDYWGQGTQVTVSS”, the “polyreactivity (PSR sort gate)” value is reported as “high polyreactivity”.
For “QVQLEESGGGLVQAGGSLRLSCAASGSTFVYYPMGWYRQATGKERELVAVISDDGGTYYADSVKGRFTISRDNAKNTVYLQMNSLKPEDTAVFYCAKDYYGGAFYWYNDRSGDYWGQGTQVTVSS”, the “polyreactivity (PSR sort gate)” value was “low polyreactivity”.
For “QVQLVESGGGLVQAGGSLRLSCAASGSTFSYNAMGWYRQAPGKERELVAAISWRGGRTYYADSVKGRFTISRDNAKNTVYLQMYSLKPEDTAVYYCAAAYAAYSRYRYDYWGQGTQVTVSS”, the “polyreactivity (PSR sort gate)” value was “high polyreactivity”.
For “QVQLVESGGGLVQAGGSLRLSCAASGSTFGANSMGWYRQAPGKERELVAAITYSSGSTRYADSVKGRFTISRDNAKTTVYLQMNILKPEDTAVYYCAARRTNYFKLGYWGQGTQVTVSS”, the “polyreactivity (PSR sort gate)” value was “high polyreactivity”.
For “QVQLVESGGGLVQAGGSLRLSCAASGYIFTYYTMGWYRQAPGKERELVAAITSSGSRTRYADSVKGRFTISRDNAKNTVYLQMNSLKPEDTAVYYCAAVYRLKSGVEWRDSQFGYWGQGTQVTVSS”, the “polyreactivity (PSR sort gate)” value was “high polyreactivity”.
With “QVQLVESGGRLVQAGGSLRLSCAASGSTIYGYAMGWYRQAPGKERELVATIRSGGSTYYADSVKGRFTISRDNAKNTVYLQMNCLIPEDTAVYYCAAKRWRGYGGGYSWGQGTQVTVSS” the “polyreactivity (PSR sort gate)” value was “high polyreactivity”.
In the case of “QVQLVESGGCLVQAGGSLRLSCAASGSTFGGNAMGWYRQAPGKERELVAAISTSGGSTYYADSVKGRFTISRDNAKNTVYLQMNSLKPEDTAVYYCNAVRIGGAPRSRFYDWGQCTQVTVSS”, the “polyreactivity (PSR sort gate)” value is reported as “high polyreactivity”.
For “QVQLVESAGGLVQAGGSLRLSCAASGGIFDRYAMGWYRQAPGKERELVAAITSGGSTNYADSVKGRFTISRDNAKNTVYLQMNSLKPEDTAVYYCNADLGILSGVDEGPTFREYDYWGQGTQVTLSS”, the “polyreactivity (PSR sort gate)” value was “low polyreactivity”.
In the case of “QVQLVESGGGLVQAGGSLRLSCAASGLTDVRYAMGWYRQAPGKEREFVAAINWRGTRTYADSVKGRYTISRDNAKNTVYLQMNSLKPEDTAVYYCAARTLYFSKYVYWGQGTQVTVSS”, the “polyreactivity (PSR sort gate)” value is reported as “high polyreactivity”.
In the case of “QVQLQESGGGLVQASGSLRLSCAASGNIFPDYFMGWYRLAPGKEREFVANITGGSTTNYADSVKGRFTISRDNAKNTLYLQMNSLKPEDTAVYYCAVNFGTVVLYLYWGQGTQVTVSI”, the “polyreactivity (PSR sort gate)” value is reported as “high polyreactivity”.
In the case of “QVQLVESGGGLVQAGGSLRLSCAASGIIFWAYAMGWYRQAPGKERELVAVISRGGSTNYADSVKGRFTISRDNAKNTVYLQMNSLKPEDTAVYYCAARYGWGQGTQVTVSS”, the “polyreactivity (PSR sort gate)” value is reported as “high polyreactivity”.
For “QVQLVESGGGLVQAGGSLRLSCAASGRTFQYYTMGWYRQAPGKERELVAAIRRGGSTYYADSVKGRFTISRDNAKNTVYLEMNSLKPEDTAVYYCAALYAFSLTARGMEYWGQGTQVTVSS”, the “polyreactivity (PSR sort gate)” value was “high polyreactivity”.
